In the supplement of paper PMC10567573:
± gives the standard deviation.

Assay: protein stability index of a GFP-peptide fusion (GPS, HEK-293T) (PSI 1-6); higher = more stable
Conditions: c terminus: a fixed tail appended
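Also: 24-mer peptide tiles fused after GFP, lentivirally expressed, FACS-sorted into six equal bins by GFP/DsRed ratio, decoded by Illumina sequencing, PSI is the read-weighted mean bin number.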

Sequence: WQLFGPFGAVTNVKVIRDFTTNKC [ELAVL3]
- protein stability index (treatment: DMSO): 2.36 ± 0.37
- protein stability index (treatment: MLN4924 1 uM, 8 h): 2.2 ± 0.26

Sequence: KLWDLRTTKCVRQYEGHVNEYAYL [DCAF4]
- protein stability index (treatment: DMSO): 2.38 ± 0.21
- protein stability index (treatment: MLN4924 1 uM, 8 h): 2.27 ± 0.22

Sequence: VYSWPKNKKNILLRLLREEEYVAP [TRAF3IP2]
- protein stability index (treatment: DMSO): 2.11 ± 0.68
- protein stability index (treatment: MLN4924 1 uM, 8 h): 2.5 ± 0.59

Sequence: LLFINHRLVESTSLRKAIETVYAA [MLH1]
- protein stability index (treatment: DMSO): 2.2 ± 0.24

Sequence: RTTKPMAQRSAHCSRPSGSSSSSG [CSNK1G1]
- protein stability index (treatment: DMSO): 4.39 ± 0.18
- protein stability index (treatment: MLN4924 1 uM, 8 h): 4.43 ± 0.2

Sequence: VKQEEDIKPPPPLVLNSQQSDTLE [RAD54B]
- protein stability index (treatment: DMSO): 5.42 ± 0.22
- protein stability index (treatment: MLN4924 1 uM, 8 h): 5.39 ± 0.33

Sequence: GPLPPAPAMVRISKPKTFQAYLDD [YPEL3]
- protein stability index (treatment: DMSO): 3.73 ± 0.18
- protein stability index (treatment: MLN4924 1 uM, 8 h): 4.33 ± 0.37

Sequence: EENIMKSNIDKKFSAHYDAVEAEL [FAM50A]
- protein stability index (treatment: DMSO): 4.98 ± 0.19
- protein stability index (treatment: MLN4924 1 uM, 8 h): 5.08 ± 0.083

Sequence: KERQKKDNHNLIERRRRFNINDRI [TFE3]
- protein stability index (treatment: DMSO): 3.95 ± 0.36
- protein stability index (treatment: MLN4924 1 uM, 8 h): 4.08 ± 0.14

Sequence: GHVEMVNLLLAKGANINAFDKKDR [ANKRD44]
- protein stability index (treatment: DMSO): 3.41 ± 0.19
- protein stability index (treatment: MLN4924 1 uM, 8 h): 3.38 ± 0.3

Sequence: AKGGSRLCTPEGWFSCQGPFDMDS [DFFB]
- protein stability index (treatment: DMSO): 3.01 ± 0.3
- protein stability index (treatment: MLN4924 1 uM, 8 h): 3.1 ± 0.27

Sequence: KRITAHEALKHPWVCQRSTVASMM [CAMK2B]
- protein stability index (treatment: DMSO): 2.5 ± 0.39
- protein stability index (treatment: MLN4924 1 uM, 8 h): 2.51 ± 0.26

Sequence: REVSSYPSTVGAEAQEEFLRVLGS [DFFB]
- protein stability index (treatment: DMSO): 4.33 ± 0.22
- protein stability index (treatment: MLN4924 1 uM, 8 h): 4.23 ± 0.16

Sequence: DFLCLLGVSYTFDNEDSELNGDYG [MIA2]
- protein stability index (treatment: DMSO): 2.24 ± 0.39
- protein stability index (treatment: MLN4924 1 uM, 8 h): 2.34 ± 0.44

Sequence: KVLQGGEQEIQFEDFTNTLRELGH [PKD2L1]
- protein stability index (treatment: DMSO): 3.08 ± 0.35
- protein stability index (treatment: MLN4924 1 uM, 8 h): 3.31 ± 0.23

Sequence: TGELVGPFVSAMPTPMPHNKGTRF [ZBED2]
- protein stability index (treatment: DMSO): 3.64 ± 0.11
- protein stability index (treatment: MLN4924 1 uM, 8 h): 3.79 ± 0.23

Sequence: LHAPPAFYSTSSGLANGLQLLCPW [VENTX]
- protein stability index (treatment: DMSO): 2.32 ± 0.1
- protein stability index (treatment: MLN4924 1 uM, 8 h): 2.27 ± 0.26

Sequence: GHSPARAGKQRMKEKEQENERKVA [DDIT3]
- protein stability index (treatment: DMSO): 5.39 ± 0.4
- protein stability index (treatment: MLN4924 1 uM, 8 h): 5.43 ± 0.37

Sequence: LTQIDGTLSTIEFQREALENSHTN [CHMP4C]
- protein stability index (treatment: DMSO): 4.34 ± 0.25
- protein stability index (treatment: MLN4924 1 uM, 8 h): 4.57 ± 0.22

Sequence: AQLQALRQKEVDFCISLLRERFME [INTS3]
- protein stability index (treatment: DMSO): 2.61 ± 0.27
- protein stability index (treatment: MLN4924 1 uM, 8 h): 2.58 ± 0.59

Sequence: TSFALERNLRTQQEIEDKMKGFSF [C8orf76]
- protein stability index (treatment: DMSO): 3.54 ± 0.19
- protein stability index (treatment: MLN4924 1 uM, 8 h): 3.53 ± 0.2

Sequence: PTYGRSFTLASSSDTRVGAPATGS [CHIT1]
- protein stability index (treatment: DMSO): 4.29 ± 0.25
- protein stability index (treatment: MLN4924 1 uM, 8 h): 4.12 ± 0.36

Sequence: DEAELDYLMDVLVGTQALERPPGP [SERTAD1]
- protein stability index (treatment: DMSO): 3.74 ± 0.35
- protein stability index (treatment: MLN4924 1 uM, 8 h): 3.87 ± 0.33

Sequence: IFEGNSEKEIPVLNELPVPMVARY [CPXM2]
- protein stability index (treatment: DMSO): 3.55 ± 0.16
- protein stability index (treatment: MLN4924 1 uM, 8 h): 3.37 ± 0.33

Sequence: RNLQDLARIYIRRTLRNFINDEMQ [PCMTD1]
- protein stability index (treatment: DMSO): 2.07 ± 0.18
- protein stability index (treatment: MLN4924 1 uM, 8 h): 2.49 ± 0.69

Sequence: GHGEPDVLKDELQLYGDAPGEVVP [TMEM40]
- protein stability index (treatment: DMSO): 5.36 ± 0.07
- protein stability index (treatment: MLN4924 1 uM, 8 h): 5.35 ± 0.23

Sequence: LDQKKQDPRVQDFLQRCLESPFSR [NET1]
- protein stability index (treatment: DMSO): 3.51 ± 0.18
- protein stability index (treatment: MLN4924 1 uM, 8 h): 3.55 ± 0.44

Sequence: GGPGGPGSDKQQQQQHIECVVCGD [NR2F2]
- protein stability index (treatment: DMSO): 5.02 ± 0.21
- protein stability index (treatment: MLN4924 1 uM, 8 h): 5.02 ± 0.45

Sequence: VKEDDKLIFHRHPVAQSTDAIRGK [SPSB1]
- protein stability index (treatment: DMSO): 4.56 ± 0.25
- protein stability index (treatment: MLN4924 1 uM, 8 h): 4.69 ± 0.25

Sequence: NVYPEMRVYNNTLTYGEVRNSKAS [GALNT9]
- protein stability index (treatment: DMSO): 3.94 ± 0.22
- protein stability index (treatment: MLN4924 1 uM, 8 h): 4.14 ± 0.3

Sequence: FSPAKPKPSKELKPLLGSAVLGLL [MYORG]
- protein stability index (treatment: DMSO): 2.15 ± 0.53
- protein stability index (treatment: MLN4924 1 uM, 8 h): 2.21 ± 0.17

Sequence: TCLMMDMKACQEDDVRLLCHLTPS [INTS3]
- protein stability index (treatment: DMSO): 2.69 ± 0.17
- protein stability index (treatment: MLN4924 1 uM, 8 h): 2.73 ± 0.33

Sequence: LVTLPVSFAQLKNLKWLDLKDNPL [LRRC59]
- protein stability index (treatment: DMSO): 2.29 ± 0.082
- protein stability index (treatment: MLN4924 1 uM, 8 h): 2.31 ± 0.23
